In patent US12195761B2, “Bioprinted, 3D scaffolds for cellular test beds and methods of use thereof” (University of Florida Research Foundation, Inc., priority 2020, dated 2025):

Assays:
[1] = system: rat fibroblast; test: Supplemental rat fibroblast viability study after printing in the bioink; type: cell-based; details: rat fibroblasts; compared to I2959 counterparts
Text: It is anticipated that crosslinking time can be reduced for the LAP group in the future to further increase viability.^40 Therefore, LAP became the crosslinker used for the later experiments for the advantages of LAP over I2959, as previously reported.^31,41

[2] = system: Schwann cells (SCs); test: SC migration in 3D bioprinted hydrogels; type: cell-based, Rat; details: 1 μg/mL growth factor in bioprinted MAHA 10/Col-I hydrogel; 7 days; n=5
Experimental: SC Migration in 3D Bioprinted Hydrogels. The experimental groups included 1 μg/mL of NGF or GDNF encapsulated within 1 mL of bioink, whereas the control group contained no growth factor (no GF) (n=5). The bioinks were used to print a cylinder of 8 mm diameter and 2 mm height. The control group was printed without any growth factor. Next, SCs were seeded on top of the hydrogels at a cell density of 10^5 cells/cm^2 and cultured for 7 days with the media changed every 2 days. Hydrogel samples, stained using a Live/Dead assay, were then placed cell-side-down in a 35-mm diameter glass-bottom dish and imaged using a Zeiss LSM 880 laser-scanning confocal microscope. Z-stacked image of 500 μm deep at 10× magnification were analyzed to assess SC migration into the hydrogel using a Zeiss ZEN 2 software by creating a heat map based on relative depth within the hydrogel to measure the farthest migration points (n=5) in each sample. By taking the average of cell migration depth, this assessment examined the total migration into the biomaterials in 3D culture.

[3] = system: DRG neurites; test: DRG neurite outgrowth in competitive in vitro test beds, β-III tubulin neurite length; type: cell-based; details: 7 days, n=5; for ratio of neurite length, growth factor side to control side: growth factor/control test bed, 1 μg/mL
Experimental: (§1) DRG Neurite Outgrowth in Competitive in vitro Test Beds. A 6-layer rectangular model with two arms or “chambers” were printed on each end (12 mm long, 5 mm wide, and 1.7 mm height). A base layer (0.7 mm height) was printed containing only the hydrogel. On top of the base on either side two “chambers” were printed; each chamber contained a concentration of 1 μg/mL of either NGF, GDNF, or no GF as control. To establish a competitive cue assay, three test bed groups were printed: NGF versus control (NGF/control), GDNF/control, or NGF/GDNF. DRGs were trimmed on the same day as testbed fabrication. Each DRG was semi-encapsulated at the center of the hydrogel testbeds by first placing the DRG directly in the middle of the two-chambered testbed and then securing in place with pH-neutralized Col-d solution at a concentration of 3 mg/mL. Col-d allowed for securing the DRG quickly without the need for direct UV exposure of the DRG. The test beds were incubated for 30 minutes to allow for collagen gelation and then media was added. Media was changed three hours following the addition of DRGs to account for bulk growth factor release into the media. DRGs were cultured for 7 days with media being changed every 2 days.
Following 7 days of culture, DRGs were fixed in 2% paraformaldehyde for 1 hour followed by three PBS rinses of 45 minutes each before blocking in 0.3% Triton X-100 and 3% goat serum in 1×PBS for 1 hour. The primary antibodies used were β-III tubulin to identify microtubules (i.e., indicating neurite extension) and GAP43, a “plasticity” protein that is expressed at high levels in neuronal growth cones (a secondary indicator of new neurite formation). Both antibodies were diluted at 1:500 dilutions and incubated on samples at 4° C. for 48 hours. […] ImageJ and the neurite tracer plugin were used to quantify neurite lengths extending from the DRG body. […] Positive area was measured as directional outgrowth from each DRG in the left and right directions toward the growth factor chambers relative to the center of the DRG body. […]

[4] = system: DRG neural growth cone (GAP43); test: DRG neurite outgrowth in competitive in vitro test beds, GAP43 signal; type: cell-based; details: normalized to total positive area, 7 days, n=3
Experimental: as §1
Following 7 days of culture, DRGs were fixed in 2% paraformaldehyde for 1 hour followed by three PBS rinses of 45 minutes each before blocking in 0.3% Triton X-100 and 3% goat serum in 1×PBS for 1 hour. The primary antibodies used were β-III tubulin to identify microtubules (i.e., indicating neurite extension) and GAP43, a “plasticity” protein that is expressed at high levels in neuronal growth cones (a secondary indicator of new neurite formation). Both antibodies were diluted at 1:500 dilutions and incubated on samples at 4° C. for 48 hours. DRGs were then washed with 0.05% Tween-20 in 1×PBS three times for 6 hours each. Secondary antibodies, AlexaFluor 488 α-rabbit and AlexaFluor 568 α-mouse at 1:500 dilutions, were added for 16 hours in blocking buffer. DRGs were rinsed with 0.05% Tween-20 in 1×PBS three times for 6 hours each. Cell nuclei were stained with DAPI in deionized water for 5 minutes at room temperature. For β-III tubulin marker, top-view images of DRGs were acquired with a Zeiss Axio Imager 2 microscope. ImageJ and the neurite tracer plugin were used to quantify neurite lengths extending from the DRG body. From a ranked list of directional neurite lengths, the five longest neurite extensions were averaged for each chamber side. […] For the GAP43 marker, samples were imaged from the top with a Zeiss LMA 880 confocal microscope. ImageJ was used to threshold positive signal for all images. Positive area was measured as directional outgrowth from each DRG in the left and right directions toward the growth factor chambers relative to the center of the DRG body. […]

Row | Molecule | viability of bioprinted cells by photoinitiator [1] | SCs migrated distance into hydrogels [2] [μm] | ratio of neurite length, growth factor side to control side [3] | fraction positive GAP43 signal ([4]; NGF/GDNF test bed) | fraction positive GAP43 signal ([4]; growth factor/control test bed) | ratio of neurite length, NGF to GDNF ([3]; NGF/GDNF test bed, 1 μg/mL each)
1 | Cc1cc(C)c(C(=O)P(=O)([O-])c2ccccc2)c(C)c1.[Li+] [LAP, lithium phenyl-2,4,6-trimethylbenzoyl-phosphinate] | highest viability | – | – | – | – | –
2 | glial cell line-derived neurotrophic factor (protein, UniProt P39905 78-211, looked up, glial cell line-derived neurotrophic factor (R&D Systems 512-GF-010/CF)) Glial cell line-derived …: SPDKQMAVLPRRERNRQAAAANPENSRGKGRRGQRGKNRGCVLTAIHLNVTDLGLGYETKEELIFRYCSGSCDAAETTYDKILKNLSRNRRLVSDKVGQACCRPIAFDDDLSFLDDNLVYHILRKHSAKRCGCI | – | 403±79.6 | 1.41±0.06 | 0.42 | 0.66 | –
3 | Rat beta-nerve growth factor (protein, UniProt P25427 122-241, looked up, Rat beta-nerve growth factor (R&D Systems 556-NG-100)) Beta-nerve growth factor: SSTHPVFHMGEFSVCDSVSVWVGDKTTATDIKGKEVTVLGEVNINNSVFKQYFFETKCRAPNPVESGCRGIDSKHWNSYCTTTHTFVKALTTDDKQAAWRFIRIDTACVCVLSRKAARRG | – | 301±89.4 | 1.42±0.13 | 0.58 | 0.63 | 1.09±0.19
